Results taken from EP1736545A2.

Tests used:
[1] = target: zcytor11 and CRF2-4 receptors co-expressed on transfected BaF3 or BHK cells (human) (UniProt Q08334); test: cell-based or functional assay
IL-TIF protein (human) = IL-TIF protein (human) (UniProt Q9GZX6); test: cell-based or functional assay
Sequence of IL-TIF protein (human) (Q9GZX6 34-179 limits assumed, form in doubt): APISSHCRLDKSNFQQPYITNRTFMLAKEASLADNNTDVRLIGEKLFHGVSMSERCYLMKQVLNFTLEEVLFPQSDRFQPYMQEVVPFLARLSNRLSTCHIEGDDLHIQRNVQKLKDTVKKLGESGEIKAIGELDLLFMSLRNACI

Sequence of zcytor11 and CRF2-4 receptors co-expressed on transfected BaF3 or BHK cells (human) (chain, as listed by the source limits assumed, form in doubt, chain 1 of 2): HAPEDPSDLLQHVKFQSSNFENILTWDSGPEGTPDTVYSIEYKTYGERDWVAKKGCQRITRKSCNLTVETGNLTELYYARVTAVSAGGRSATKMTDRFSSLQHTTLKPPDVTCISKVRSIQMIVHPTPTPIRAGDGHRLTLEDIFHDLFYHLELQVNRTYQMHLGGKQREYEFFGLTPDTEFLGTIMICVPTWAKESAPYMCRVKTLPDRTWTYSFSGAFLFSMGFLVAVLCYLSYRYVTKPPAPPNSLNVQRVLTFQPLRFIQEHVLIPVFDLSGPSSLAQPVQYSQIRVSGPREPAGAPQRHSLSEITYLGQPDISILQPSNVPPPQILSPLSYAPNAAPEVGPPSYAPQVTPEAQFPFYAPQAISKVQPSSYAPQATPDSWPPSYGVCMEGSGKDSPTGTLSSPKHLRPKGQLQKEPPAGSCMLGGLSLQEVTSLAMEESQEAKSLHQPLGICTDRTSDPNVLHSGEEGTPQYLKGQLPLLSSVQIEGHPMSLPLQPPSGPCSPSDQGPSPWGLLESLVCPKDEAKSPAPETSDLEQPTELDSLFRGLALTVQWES
Sequence of zcytor11 and CRF2-4 receptors co-expressed on transfected BaF3 or BHK cells (human) (Q08334 20-325 limits assumed, form in doubt, chain 2 of 2): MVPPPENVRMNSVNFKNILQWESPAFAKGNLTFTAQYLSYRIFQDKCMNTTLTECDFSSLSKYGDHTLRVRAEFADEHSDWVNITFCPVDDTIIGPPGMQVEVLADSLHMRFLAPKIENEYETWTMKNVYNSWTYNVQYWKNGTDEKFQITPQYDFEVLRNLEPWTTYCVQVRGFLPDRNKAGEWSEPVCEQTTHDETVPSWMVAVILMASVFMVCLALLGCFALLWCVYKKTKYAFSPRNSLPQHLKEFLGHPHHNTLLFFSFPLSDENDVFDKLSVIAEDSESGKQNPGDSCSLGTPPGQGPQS

proliferation of BaF3/CRF2-4/zcytor11 cells (Alamar Blue), IL-TIF at 100 pg/ml (fold over background) [1]	inhibition of IL-TIF-induced proliferation of BaF3/CRF2-4/zcytor11 cells (Alamar Blue): concentration at which inhibition was barely detectable (IL-TIF protein (human))	inhibition of IL-TIF-induced proliferation of BaF3/CRF2-4/zcytor11 cells (Alamar Blue): concentrations giving complete inhibition (IL-TIF protein (human))	inhibition of IL-TIF-induced proliferation of BaF3/CRF2-4/zcytor11 cells (Alamar Blue): concentrations giving partial inhibition (IL-TIF protein (human))	Substance
30				IL-TIF protein (from UniProt Q9GZX6 34-179) (ligand)
	1.6 ng/mL	25 to 200 ng/mL	3.1 to 12.5 ng/mL	CRF2-4/zcytor11-Fc soluble receptor heterodimer (Fc fusion)
